Here are results for two substances from article PMC8613289.

Experiment in all cases: TurboID proximity biotinylation, streptavidin pull-down, MS-based proteomics
What all share (settings): biotin for 1 h; n = 5; read off a plot

The target in test [1] is AHCTF1.
For test [2], the target named is NDC1.
Test [3] deals with NUPL2.
Test [4] deals with Nup214 (UniProt P35658).
Test [5] addresses Nup50 (UniProt Q9UKX7).
Test [6] has as its target RANGAP1.
The target of test [7] is RanBP2 (UniProt P49792).

For the substance “EphA2-V5-TurboID (wild-type EphA2) (from UniProt P29317) NLS1 (RRR>AAA in the juxtamembrane stretch …, as read from Fig. 3a; no residue numbers printed)”, the other: Student's T-test Difference WT NLS1 in test [1] is 0.5; in test [2] it was -1; in test [3], -1.6; in test [4], 2; in test [5], 2.5; in test [6], 1.8. Further, the other: Student's T-test Difference WT NLS1 in test [7] is 1.5.
“EphA2-V5-TurboID (wild-type EphA2) (from UniProt P29317) NLS2 (two K>A in the stretch …, as read from Fig. 3a; no residue numbers printed)”: the other: Student's T-test Difference WT NLS2 is 1.3 in test [1]; 2.9 in test [4]; 3.1 in test [5]; 2.6 in test [6]; 2.1 in test [7].
